This note sets out measurements from patent US20250230240A1 (LAVA THERAPEUTICS N V, published 2025).

Assay [1] has as its target Vγ9Vδ2 T cell receptor on expanded primary human Vγ9Vδ2 T cells (human) (UniProt Q99603). The assay is described as follows: cell-based or functional assay.
For assay [2], the target named is T1, recombinant purified CD123-Fc fusion protein (Bio-Techne/R&D Systems) (human, UniProt P26951 19-305, limits assumed).
T1 construct: Bought protein; also called recombinant CD123; not shown: Fc part of the bought fusion protein
T1 sequence (looked up): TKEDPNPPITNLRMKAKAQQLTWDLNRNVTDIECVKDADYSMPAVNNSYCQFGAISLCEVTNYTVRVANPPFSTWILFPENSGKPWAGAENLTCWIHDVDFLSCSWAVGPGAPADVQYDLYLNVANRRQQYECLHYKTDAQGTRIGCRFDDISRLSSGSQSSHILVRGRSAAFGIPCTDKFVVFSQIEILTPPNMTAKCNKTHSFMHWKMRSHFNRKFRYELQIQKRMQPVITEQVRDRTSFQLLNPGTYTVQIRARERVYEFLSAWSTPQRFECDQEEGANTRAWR
The assay can be described thus: BLI (Octet Red96e), CD123-Fc on anti-human IgG Fc capture sensors; measured twice, SD 0.4.

Assay [3] deals with T1, recombinant purified CD123-Fc fusion …. The assay can be described thus: BLI (Octet Red96e), CD123-Fc on anti-human IgG Fc capture sensors; measured twice, SD 0.5. A general note: BLI is a label-free optical method that tracks binding on a fibre tip over time.
The target is the same in assay [4]. The assay is described as follows: BLI (Octet Red96e), CD123-Fc on anti-human IgG Fc capture sensors; *low binding (>20 nM), one measurement only.
The target is the same in assay [5]. The assay is described as follows: BLI (Octet Red96e), CD123-Fc on anti-human IgG Fc capture sensors; measured twice, SD 4.3.
The target is the same in assay [6]. The assay is described as follows: BLI (Octet Red96e), CD123-Fc on anti-human IgG Fc capture sensors; measured twice, SD 7.5.
Assay [7] shares this target. The assay is described as follows: BLI (Octet Red96e), CD123-Fc on anti-human IgG Fc capture sensors; measured twice, SD 1.5.
Assay [8] has the same target. The assay is described as follows: BLI (Octet Red96e), CD123-Fc on anti-human IgG Fc capture sensors; measured twice, SD 0.7. How it is done: Different sensors were then dipped in different concentrations of humanized 1D2-5C8var1 variants, starting at 50 nM and two-fold dilutions thereof; dilutions were made in 10x kinetic buffer (10×KB) provided by the supplier. From the obtained sensorgrams, the kinetic association- and dissociation rate constants were determined by curve fitting. The association- and dissociation rate constants, when fitting was possible, were used to calculate the affinity of the humanized 1D2-5C8var1 variants for binding to CD123. […] For reference, the non-humanized (parental) 1D2 was included in these experiments.

In assay [9] the target is Recombinant human Vγ9Vδ2-Fc fusion protein (human) (UniProt Q99603). The assay can be described thus: BLI (Octet RED96), Vγ9Vδ2-Fc captured on anti-human Fc sensors, VHH as analyte, 1:1 fit; mean of at least three measurements +/- SD.
The target is the same in assay [10]. The assay can be described thus: BLI (Octet), single VHH on recombinant Vγ9Vδ2 TCR protein.
For assay [11] the target is unchanged. The assay can be described thus: BLI (Octet), single VHH on recombinant Vγ9Vδ2 TCR.
The target in assay [12] is Vγ9Vδ2 T cell receptor on expanded primary human Vγ9Vδ2 T cells (human), Q99603. The assay can be described thus: cell-based or functional assay.
Chain of Vγ9Vδ2 T cell receptor on expanded primary human Vγ9Vδ2 T cells (human), Q99603 (Q99603 21-122, stated change not applied, chain 1 of 2): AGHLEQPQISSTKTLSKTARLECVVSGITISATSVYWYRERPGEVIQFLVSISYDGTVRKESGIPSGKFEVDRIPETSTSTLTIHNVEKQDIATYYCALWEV
Chain of Vγ9Vδ2 T cell receptor on expanded primary human Vγ9Vδ2 T cells (human), Q99603 (A0JD36 20-115, stated change not applied, chain 2 of 2, further chain): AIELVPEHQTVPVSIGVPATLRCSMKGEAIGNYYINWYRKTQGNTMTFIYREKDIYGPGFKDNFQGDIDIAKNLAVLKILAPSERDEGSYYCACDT

Chain of Vγ9Vδ2 T cell receptor on expanded primary human Vγ9Vδ2 T cells (human) (Q99603 21-122, stated change not applied, chain 1 of 2): as the sequence (Q99603 21-122, stated change not applied, chain 1 of 2) above
Chain of Vγ9Vδ2 T cell receptor on expanded primary human Vγ9Vδ2 T cells (human) (A0JD36 20-115, stated change not applied, chain 2 of 2, further chain): as the sequence (A0JD36 20-115, stated change not applied, chain 2 of 2, further chain) above

In assay [1], “bispecific VHH 7D12-5C8 (non-humanized) (bispecific antibody)” showed an EC50 cytotoxicity (A431 tumour cell kill, 24 h) of 0.009 nM and an EC50 degranulation (CD107A+ Vγ9Vδ2 T cells, 4 h, A431 target cells) of 0.01 nM.

B1: SEQ ID NO 26 (Table 12): humanized 1D2 variant as bispecific VHH with 5C8var1 (bispecific antibody)
chain: EVQLVESGGGLVQPGGSLRLSCAASGRTASSYVMGWFRQAPGKEREFVSVINWNGDSTYYADSVKGRFTISRDNSKNTLYLQMNSLRAEDTAVYYCAADTRREWYRDGYWGPPARYEYDYRGQGTQVTVSSGGGGSEVQLLESGGGSVQPGGSLRLSCAASGRPFSNYAMSWFRQAPGKEREFVSAISWSGGSTSYADSVKGRFTISRDNSKNTLYLQMNSLRAEDTAVYYCAAQFSGADYGFGRLGIRGYEYDYWGQGTQVTVSS
As usually defined, the Kd is the constant that tells how readily two partners part at equilibrium. B1: in [2], the Kd was 7.2 nM.

B2: SEQ ID NO 34 (Table 12): humanized 1D2 variant as bispecific VHH with 5C8var1 (bispecific antibody)
chain: EVQLVESGGGLVQAGGSLRLSCAASGRTASSYVMGWFRQAPGKEREWVAVINWNGDSTYYTDSVKGRFAISRDNAKNTVYLQMNSLRAEDTAVYYCAADTRREWYRDGYWGPPARYEYDYRGQGTQVTVSSGGGGSEVQLLESGGGSVQPGGSLRLSCAASGRPFSNYAMSWFRQAPGKEREFVSAISWSGGSTSYADSVKGRFTISRDNSKNTLYLQMNSLRAEDTAVYYCAAQFSGADYGFGRLGIRGYEYDYWGQGTQVTVSS
In the case of B2, the Kd in [3] came to 2.6 nM.

B3: SEQ ID NO 31 (Table 12): humanized 1D2 variant as bispecific VHH with 5C8var1 (bispecific antibody)
chain: EVQLVESGGGLVQPGGSLRLSCAASGRTASSYVMGWVRQAPGKGLEWVSVINWNGDSTYYADSVKGRFTISRDNSKNTLYLQMNSLRAEDTAVYYCAADTRREWYRDGYWGPPARYEYDYRGQGTLVTVSSGGGGSEVQLLESGGGSVQPGGSLRLSCAASGRPFSNYAMSWFRQAPGKEREFVSAISWSGGSTSYADSVKGRFTISRDNSKNTLYLQMNSLRAEDTAVYYCAAQFSGADYGFGRLGIRGYEYDYWGQGTQVTVSS
For B3, in assay [4], the Kd was 29.1 nM.

B4: SEQ ID NO 33 (Table 12): humanized 1D2 variant as bispecific VHH with 5C8var1 (bispecific antibody)
chain: EVQLVESGGGLVQPGGSLRLSCAASGRTASSYVMSWFRQAPGKGLEWVAVINWNGDSTYYADSVKGRFTISRDNSKNTVYLQMNSLRAEDTAVYYCAADTRREWYRDGYWGPPARYEYDYRGQGTLVTVSSGGGGSEVQLLESGGGSVQPGGSLRLSCAASGRPFSNYAMSWFRQAPGKEREFVSAISWSGGSTSYADSVKGRFTISRDNSKNTLYLQMNSLRAEDTAVYYCAAQFSGADYGFGRLGIRGYEYDYWGQGTQVTVSS
As for B4, in [4], the Kd was 44.1 nM.

B5: SEQ ID NO 28 (Table 12): humanized 1D2 variant as bispecific VHH with 5C8var1 (bispecific antibody)
chain: EVQLVESGGGLVQPGGSLRLSCAASGRTASSYVMSWFRQAPGKEREWVAVINWNGDSTYYADSVKGRFTISRDNSKNTVYLQMNSLRAEDTAVYYCAADTRREWYRDGYWGPPARYEYDYRGQGTLVTVSSGGGGSEVQLLESGGGSVQPGGSLRLSCAASGRPFSNYAMSWFRQAPGKEREFVSAISWSGGSTSYADSVKGRFTISRDNSKNTLYLQMNSLRAEDTAVYYCAAQFSGADYGFGRLGIRGYEYDYWGQGTQVTVSS
B5: in assay [5], the Kd is 14.9 nM.

B6: SEQ ID NO 27 (Table 12): humanized 1D2 variant as bispecific VHH with 5C8var1 (bispecific antibody)
chain: EVQLVESGGGLVQPGGSLRLSCAASGRTASSYVMGWVRQAPGKEREWVSVINWNGDSTYYADSVKGRFTISRDNSKNTLYLQMNSLRAEDTAVYYCAADTRREWYRDGYWGPPARYEYDYRGQGTLVTVSSGGGGSEVQLLESGGGSVQPGGSLRLSCAASGRPFSNYAMSWFRQAPGKEREFVSAISWSGGSTSYADSVKGRFTISRDNSKNTLYLQMNSLRAEDTAVYYCAAQFSGADYGFGRLGIRGYEYDYWGQGTQVTVSS
For B6, the Kd in assay [4] stood at 24.5 nM.

B7: SEQ ID NO 29 (Table 12): humanized 1D2 variant as bispecific VHH with 5C8var1 (bispecific antibody)
chain: EVQLVESGGGVVQPGGSLRLSCAASGRTASSYVMSWFRQAPGKEREWVAVINWNGDSTYYADSVKGRFTISRDNSKNTLYLQMNSLRAEDTAVYYCAADTRREWYRDGYWGPPARYEYDYRGQGTTVTVSSGGGGSEVQLLESGGGSVQPGGSLRLSCAASGRPFSNYAMSWFRQAPGKEREFVSAISWSGGSTSYADSVKGRFTISRDNSKNTLYLQMNSLRAEDTAVYYCAAQFSGADYGFGRLGIRGYEYDYWGQGTQVTVSS
Regarding B7, the Kd in [6] came out at 20 nM.

B8: SEQ ID NO 30 (Table 12): humanized 1D2 variant as bispecific VHH with 5C8var1 (bispecific antibody)
chain: EVQLVESGGGLVQPGGSLRLSCAASGRTASSYVMSWFRQAPGKEREFVAVINWNGDSTYYADSVKGRFTISRDNSKNTVYLQMNSLRAEDTAVYYCAADTRREWYRDGYWGPPARYEYDYRGQGTLVTVSSGGGGSEVQLLESGGGSVQPGGSLRLSCAASGRPFSNYAMSWFRQAPGKEREFVSAISWSGGSTSYADSVKGRFTISRDNSKNTLYLQMNSLRAEDTAVYYCAAQFSGADYGFGRLGIRGYEYDYWGQGTQVTVSS
Regarding B8, in assay [7], the dissociation constant Kd turned out to be 7.7 nM.

B9: SEQ ID NO 1 (Table 12): non-humanized (parental) anti-CD123 VHH 1D2 (VHH)
VHH: EVQLVESGGGLVQAGGSLRLSCAASGRTASSYVMGWFRQAPGKEREFVAVINWNGDSTYYTDSVKGRFAISRDNAKNTVYLQMNSLKPEDTAVYYCAADTRREWYRDGYWGPPARYEYDYRGQGTQVTVSS
notes: also called parental 1D2
With B9, in assay [8], the Kd came out at 3.1 nM.

B10: VHH 5C8var1 (VHH)
VHH: EVQLLESGGGSVQPGGSLRLSCAASGRPFSNYAMSWFRQAPGKEREFVSAISWSGGSTSYADSVKGRFTISRDNSKNTLYLQMNSLRAEDTAVYYCAAQFSGADYGFGRLGIRGYEYDYWGQGTQVTVSS
modifications: Y105 partly sulfated (as found for 5C8 and for 1D12var5-5C8var1)
In the case of B10, in assay [9], the Kd was found to be 0.81 nM.

B11: VHH 5C8var1-Y105F/R109K (VHH)
VHH: EVQLLESGGGSVQPGGSLRLSCAASGRPFSNYAMSWFRQAPGKEREFVSAISWSGGSTSYADSVKGRFTISRDNSKNTLYLQMNSLRAEDTAVYYCAAQFSGADFGFGKLGIRGYEYDYWGQGTQVTVSS
In the case of B11, in [10], the Kd was 0.82 nM.

B12: VHH 5C8var1-Y105F/R109A (VHH)
VHH: EVQLLESGGGSVQPGGSLRLSCAASGRPFSNYAMSWFRQAPGKEREFVSAISWSGGSTSYADSVKGRFTISRDNSKNTLYLQMNSLRAEDTAVYYCAAQFSGADFGFGALGIRGYEYDYWGQGTQVTVSS
In the case of B12, the Kd in [10] came out at 1.2 nM.

B13: VHH 5C8var1-Y105F/G108A (VHH)
VHH: EVQLLESGGGSVQPGGSLRLSCAASGRPFSNYAMSWFRQAPGKEREFVSAISWSGGSTSYADSVKGRFTISRDNSKNTLYLQMNSLRAEDTAVYYCAAQFSGADFGFARLGIRGYEYDYWGQGTQVTVSS
As for B13, the fold reduction of affinity against 5C8var1-Y105F in assay [11] was found to be 10 fold. Further, in assay [10], the Kd worked out at 9.2 nM.

B14: VHH 5C8var1-Y105F (VHH)
VHH: EVQLLESGGGSVQPGGSLRLSCAASGRPFSNYAMSWFRQAPGKEREFVSAISWSGGSTSYADSVKGRFTISRDNSKNTLYLQMNSLRAEDTAVYYCAAQFSGADFGFGRLGIRGYEYDYWGQGTQVTVSS
Turning to B14, the Kd is 0.74 nM in [10] and 0.78 nM in assay [9].

B15: VHH 5C8var1-Y105S (VHH)
VHH: EVQLLESGGGSVQPGGSLRLSCAASGRPFSNYAMSWFRQAPGKEREFVSAISWSGGSTSYADSVKGRFTISRDNSKNTLYLQMNSLRAEDTAVYYCAAQFSGADSGFGRLGIRGYEYDYWGQGTQVTVSS
Take B15: in assay [9], the Kd worked out at 1.59 nM.

B16: bispecific VHH 7D12var8-5C8var1-Y105F (bispecific antibody)
chain: EVQLVESGGGSVQPGGSLRLSCAASGRTSRSYGMGWFRQAPGKEREFVSGISWRGDSTGYADSVKGRFTISRDNAKNTVDLQMNSLRAEDTAVYYCAAAAGSAWYGTLYEYDYWGQGTLVTVSSGGGGSEVQLLESGGGSVQPGGSLRLSCAASGRPFSNYAMSWFRQAPGKEREFVSAISWSGGSTSYADSVKGRFTISRDNSKNTLYLQMNSLRAEDTAVYYCAAQFSGADFGFGRLGIRGYEYDYWGQGTQVTVSS
As to B16, in assay [12], the EC50 cytotoxicity (A431 tumour cell kill, 24 h) was 0.0025 nM and the EC50 degranulation (CD107A+ Vγ9Vδ2 T cells, 4 h, A431 target cells) came to 0.011 nM.
